Reference: publication PMC11575451 (The Journal of Cell Biology, 2024)

Target: T1, FLAG-HA-RTN3L (human, UniProt O95197 1-1032)
T1 sequence (looked up): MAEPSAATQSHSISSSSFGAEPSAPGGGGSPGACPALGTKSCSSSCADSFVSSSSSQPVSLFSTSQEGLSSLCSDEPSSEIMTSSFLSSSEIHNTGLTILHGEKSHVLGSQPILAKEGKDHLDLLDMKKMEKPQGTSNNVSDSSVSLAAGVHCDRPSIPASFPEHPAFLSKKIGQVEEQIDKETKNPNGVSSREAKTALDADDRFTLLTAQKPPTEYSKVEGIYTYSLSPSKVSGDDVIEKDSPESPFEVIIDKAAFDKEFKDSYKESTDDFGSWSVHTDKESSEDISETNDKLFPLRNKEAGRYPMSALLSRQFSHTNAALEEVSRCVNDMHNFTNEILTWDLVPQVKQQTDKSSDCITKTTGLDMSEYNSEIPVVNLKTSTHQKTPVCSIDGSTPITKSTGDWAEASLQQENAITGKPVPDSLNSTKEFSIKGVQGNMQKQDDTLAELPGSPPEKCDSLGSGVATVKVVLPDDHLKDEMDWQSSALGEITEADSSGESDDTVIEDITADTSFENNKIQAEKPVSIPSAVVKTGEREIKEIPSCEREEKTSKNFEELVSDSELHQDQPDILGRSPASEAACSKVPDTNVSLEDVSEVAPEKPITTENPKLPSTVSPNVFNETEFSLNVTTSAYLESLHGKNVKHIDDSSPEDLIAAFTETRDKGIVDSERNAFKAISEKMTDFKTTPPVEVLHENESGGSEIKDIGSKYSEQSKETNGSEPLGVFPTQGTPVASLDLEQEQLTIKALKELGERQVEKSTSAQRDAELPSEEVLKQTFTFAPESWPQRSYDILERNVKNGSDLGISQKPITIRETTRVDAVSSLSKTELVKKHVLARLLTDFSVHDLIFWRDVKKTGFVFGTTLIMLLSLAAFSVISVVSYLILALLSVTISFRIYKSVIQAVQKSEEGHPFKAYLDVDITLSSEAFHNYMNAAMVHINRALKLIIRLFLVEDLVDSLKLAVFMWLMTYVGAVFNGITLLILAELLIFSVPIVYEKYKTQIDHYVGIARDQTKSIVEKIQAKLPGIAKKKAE
Experiment: co-IP

B1: PEF1 (natural protein, human (endogenous in U2OS), UniProt Q9UBV8 1-284, looked up)
chain: MASYPYRQGCPGAAGQAPGAPPGSYYPGPPNSGGQYGSGLPPGGGYGGPAPGGPYGPPAGGGPYGHPNPGMFPSGTPGGPYGGAAPGGPYGQPPPSSYGAQQPGLYGQGGAPPNVDPEAYSWFQSVDSDHSGYISMKELKQALVNCNWSSFNDETCLMMINMFDKTKSGRIDVYGFSALWKFIQQWKNLFQQYDRDRSGSISYTELQQALSQMGYNLSPQFTQLLVSRYCPRSANPAMQLDRFIQVCTQLQVLTEAFREKDTAVQGNIRLSFEDFVTMTASRML
- PEF1 precipitated in the tagged sample relative to the untagged control: 4.8 x
